# Reference: the supplement of paper PMC9112550, “Optimization of the antimicrobial peptide Bac7 by deep mutational scanning” (BMC Biology, 2022)
# Test system: Escherichia coli TOP10
# Experiment: shrunken log2 fold change of peptide-encoding DNA abundance (4.5 h post-induction vs induction); higher = less antimicrobial activity (less host growth inhibition)
# Conditions: time post-induction: 4.5 h; library: site-saturation at positions 5, 18, 19, 20
# 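Further: peptides expressed intracellularly from a pBAD plasmid library in pooled LB shake-flask culture, induced with 0.3% L-arabinose, DNA abundance read by NGS, three biological replicates, DESeq2 with apeglm shrinkage.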
row,Sequence,shrunken log2 fold change
1,RRIRWRPPRLPRPRPRPFQWPRP,0.236
2,RRIRWRPPRLPRPRPRPFREPRP,-0.105
3,RRIRWRPPRLPRPRPRPFRFPRP,-0.0501
4,RRIRWRPPRLPRPRPRPFRGPRP,0.0269
5,RRIRWRPPRLPRPRPRPFRLPRP,-0.394
6,RRIRWRPPRLPRPRPRPFRNPRP,-0.209
7,RRIRWRPPRLPRPRPRPFSSPRP,-0.374
8,RRIRWRPPRLPRPRPRPFSTPRP,-0.14
9,RRIRWRPPRLPRPRPRPFSYPRP,-0.203
10,RRIRWRPPRLPRPRPRPFTAPRP,-0.0343
11,RRIRWRPPRLPRPRPRPFTQPRP,-0.0585
12,RRIRWRPPRLPRPRPRPFTRPRP,-0.00433
13,RRIRWRPPRLPRPRPRPFTWPRP,-0.119
14,RRIRWRPPRLPRPRPRPFVWPRP,0.128
15,RRIRWRPPRLPRPRPRPFWAPRP,0.274
16,RRIRWRPPRLPRPRPRPFYDPRP,-0.21
17,RRIRWRPPRLPRPRPRPGARPRP,0.659
18,RRIRWRPPRLPRPRPRPGCNPRP,-0.0626
19,RRIRWRPPRLPRPRPRPGCSPRP,0.551
20,RRIRWRPPRLPRPRPRPGDPPRP,1.14
21,RRIRWRPPRLPRPRPRPGFRPRP,0.221
22,RRIRWRPPRLPRPRPRPGIIPRP,-0.0357

row,Sequence,shrunken log2 fold change
1,RRIRWRPPRLPRPRPRPGIQPRP,0.468
2,RRIRWRPPRLPRPRPRPGISPRP,-0.00138
3,RRIRWRPPRLPRPRPRPGKGPRP,-0.0357
4,RRIRWRPPRLPRPRPRPGLGPRP,0.83
5,RRIRWRPPRLPRPRPRPGLQPRP,0.0651
6,RRIRWRPPRLPRPRPRPGLWPRP,1.16
7,RRIRWRPPRLPRPRPRPGMGPRP,0.525
8,RRIRWRPPRLPRPRPRPGPLPRP,0.0252
9,RRIRWRPPRLPRPRPRPGPSPRP,0.223
10,RRIRWRPPRLPRPRPRPGQCPRP,0.00553
11,RRIRWRPPRLPRPRPRPGQHPRP,-0.172
12,RRIRWRPPRLPRPRPRPGQSPRP,0.572
13,RRIRWRPPRLPRPRPRPGREPRP,0.412
14,RRIRWRPPRLPRPRPRPGRTPRP,0.0519
15,RRIRWRPPRLPRPRPRPGSLPRP,0.0223
16,RRIRWRPPRLPRPRPRPGSPPRP,0.0119
17,RRIRWRPPRLPRPRPRPGSWPRP,0.517
18,RRIRWRPPRLPRPRPRPGVCPRP,0.681
19,RRIRWRPPRLPRPRPRPGVRPRP,0.304
20,RRIRWRPPRLPRPRPRPGWCPRP,0.362
21,RRIRWRPPRLPRPRPRPGWEPRP,0.292
22,RRIRWRPPRLPRPRPRPHADPRP,0.708

row,Sequence,shrunken log2 fold change
1,RRIRWRPPRLPRPRPRPHAPPRP,0.517
2,RRIRWRPPRLPRPRPRPHCYPRP,-0.0542
3,RRIRWRPPRLPRPRPRPHDEPRP,-0.2
4,RRIRWRPPRLPRPRPRPHDGPRP,-0.00986
5,RRIRWRPPRLPRPRPRPHDRPRP,0.00489
6,RRIRWRPPRLPRPRPRPHECPRP,-0.0602
7,RRIRWRPPRLPRPRPRPHELPRP,-0.0349
8,RRIRWRPPRLPRPRPRPHFEPRP,-0.165
9,RRIRWRPPRLPRPRPRPHGPPRP,0.0026
10,RRIRWRPPRLPRPRPRPHHSPRP,-0.667
11,RRIRWRPPRLPRPRPRPHIFPRP,-0.494
12,RRIRWRPPRLPRPRPRPHKDPRP,-0.115
13,RRIRWRPPRLPRPRPRPHLWPRP,0.191
14,RRIRWRPPRLPRPRPRPHMIPRP,-0.219
15,RRIRWRPPRLPRPRPRPHNTPRP,-0.391
16,RRIRWRPPRLPRPRPRPHPKPRP,0.408
17,RRIRWRPPRLPRPRPRPHPVPRP,-0.0118
18,RRIRWRPPRLPRPRPRPHSFPRP,-0.266
19,RRIRWRPPRLPRPRPRPHSLPRP,-0.262
20,RRIRWRPPRLPRPRPRPHTLPRP,-0.325
21,RRIRWRPPRLPRPRPRPHVTPRP,-0.264
22,RRIRWRPPRLPRPRPRPHWRPRP,0.329

row,Sequence,shrunken log2 fold change
1,RRIRWRPPRLPRPRPRPHYRPRP,0.0266
2,RRIRWRPPRLPRPRPRPIAVPRP,0.187
3,RRIRWRPPRLPRPRPRPICNPRP,-0.0133
4,RRIRWRPPRLPRPRPRPICPPRP,-0.0872
5,RRIRWRPPRLPRPRPRPICVPRP,-0.12
6,RRIRWRPPRLPRPRPRPICWPRP,0.646
7,RRIRWRPPRLPRPRPRPIFAPRP,0.329
8,RRIRWRPPRLPRPRPRPIFFPRP,0.125
9,RRIRWRPPRLPRPRPRPIFRPRP,0.0199
10,RRIRWRPPRLPRPRPRPIGPPRP,-0.0272
11,RRIRWRPPRLPRPRPRPIGVPRP,0.0389
12,RRIRWRPPRLPRPRPRPIHIPRP,-0.694
13,RRIRWRPPRLPRPRPRPIICPRP,-0.523
14,RRIRWRPPRLPRPRPRPIINPRP,-0.609
15,RRIRWRPPRLPRPRPRPIIVPRP,-0.138
16,RRIRWRPPRLPRPRPRPIKTPRP,0.00902
17,RRIRWRPPRLPRPRPRPILDPRP,0.187
18,RRIRWRPPRLPRPRPRPILPPRP,-0.0759
19,RRIRWRPPRLPRPRPRPIMLPRP,0.464
20,RRIRWRPPRLPRPRPRPINQPRP,-0.0913
21,RRIRWRPPRLPRPRPRPINVPRP,-0.0356
22,RRIRWRPPRLPRPRPRPIPMPRP,0.112

row,Sequence,shrunken log2 fold change
1,RRIRWRPPRLPRPRPRPIQHPRP,0.00853
2,RRIRWRPPRLPRPRPRPIRAPRP,-0.0266
3,RRIRWRPPRLPRPRPRPIRKPRP,0.636
4,RRIRWRPPRLPRPRPRPIRVPRP,0.0983
5,RRIRWRPPRLPRPRPRPISVPRP,-0.186
6,RRIRWRPPRLPRPRPRPITIPRP,-0.162
7,RRIRWRPPRLPRPRPRPIVCPRP,0.0105
8,RRIRWRPPRLPRPRPRPIVHPRP,-0.175
9,RRIRWRPPRLPRPRPRPIYLPRP,-0.674
10,RRIRWRPPRLPRPRPRPKAMPRP,0.176
11,RRIRWRPPRLPRPRPRPKCPPRP,-0.00278
12,RRIRWRPPRLPRPRPRPKDKPRP,0.077
13,RRIRWRPPRLPRPRPRPKIVPRP,-0.272
14,RRIRWRPPRLPRPRPRPKKAPRP,0.149
15,RRIRWRPPRLPRPRPRPKKDPRP,0.223
16,RRIRWRPPRLPRPRPRPKLAPRP,1.03
17,RRIRWRPPRLPRPRPRPKMFPRP,-0.0838
18,RRIRWRPPRLPRPRPRPKNGPRP,-0.156
19,RRIRWRPPRLPRPRPRPKQKPRP,0.0665
20,RRIRWRPPRLPRPRPRPKQPPRP,0.334
21,RRIRWRPPRLPRPRPRPKQRPRP,0.473
